Laboratory results reported in paper PMC6021111, “Murine leukemia virus p12 tethers the capsid-containing pre-integration complex to chromatin by binding directly to host nucleosomes in mitosis” (PLoS Pathogens, 2018).

B1: unnamed (parent)
chain 1: PALTPSLGAKPKPQVLSDSGGPLIDLLTEDPPPYRDPRPPPSDRDGNGGEATPAGEAPDPSPMASRLRGRREPPVADSTTSQAF
chain 2: MLNMWKVRELVDKATNVVMNYSEIESKVREATNDDPWGPSGQLMGEIAKATFMYEQFPELMNMLWSRMLKDNKKNWRRVYKSLLLLAYLIRNGSERVVTSAREHIYDLRSLENYHFVDEHGKDQGINIRQKVKELVEFAQDDDRLREERKKAKKNKDKYVGVSSDSVGGFRYSERYDPEPKSKWDEEWDKNKSAFPFSDKLGELSDKIGSTIDDTISKFRRKDREDSPERCSDSDEEKKARRGRSPKGEFKDEEETVTTKHIHITQATETTTTRHKRTANPSKTIDLGAAAHYTGDKASPDQNASTHTPQSSVKTSVPSSKSSGDLVDLFDGTSQSTGGSADLFGGFADFGSAAASGSFPSQVTATSGNGDFGDWSAFNQAPSGPVASSGEFFGSASQPAVELVSGSQSALGPPPAASNSSDLFDLMGSSQATMTSSQSMNFSMMSTNTVGLGLPMSRSQNTDMVQKSVSKTLPSTWSDPSVNISLDNLLPGMQPSKPQQPSLNTMIQQQNMQQPMNVMTQSFGAVNLSSPSNMLPVRPQTNALIGGPMPMSMPNVMTGTMGMAPLGNTPMMNQSMMGMNMNIGMSAAGMGLTGTMGMGMPNIAMTSGTVQPKQDAFANFANFSK
B2: unnamed (parent)
chain 1: B1 chain 1
chain 2: MAQISSNSGFKECPSSHPEPTRAKDVDKEEALQMEAEALAKLQKDRQVTDNQRGFELSSSTRKKAQVYNKQDYDLMVFPESDSQKRALDIDVEKLTQAELEKLLLDDSFETKKTPVLPVTPILSPSFSAQLYFRPTIQRGQWPPGLPGPSTYALPSIYPSTYSKQAAFQNGFNPRMPTFPSTEPIYLSLPGQSPYFSYPLTPATPFHPQGSLPIYRPVVSTDMAKLFDKIASTSEFLKNGKARTDLEITDSKVSNLQVSPKSEDISKFDWLDLDPLSKPKVDNVEVLDHEEEKNVSSLLAKDPWDAVLLEERSTANCHLERKVNGKSLSVATVTRSQSLNIRTTQLAKAQGHISQKDPNGTSSLPTGSSLLQEVEVQNEEMAAFCRSITKLKTKFPYTNHRTNPGYLLSPVTAQRNICGENASVKVSIDIEGFQLPVTFTCDVSSTVEIIIMQALCWVHDDLNQVDVGSYVLKVCGQEEVLQNNHCLGSHEHIQNCRKWDTEIRLQLLTFSAMCQNLARTAEDDETPVDLNKHLYQIEKPCKEAMTRHPVEELLDSYHNQVELALQIENQHRAVDQVIKAVRKICSALDGVETLAITESVKKLKRAVNLPRSKTADVTSLFGGEDTSRSSTRGSLNPENPVQVSINQLTAAIYDLLRLHANSGRSPTDCAQSSKSVKEAWTTTEQLQFTIFAAHGISSNWVSNYEKYYLICSLSHNGKDLFKPIQSKKVGTYKNFFYLIKWDELIIFPIQISQLPLESVLHLTLFGILNQSSGSSPDSNKQRKGPEALGKVSLPLFDFKRFLTCGTKLLYLWTSSHTNSVPGTVTKKGYVMERIVLQVDFPSPAFDIIYTTPQVDRSIIQQHNLETLENDIKGKLLDILHKDSSLGLSKEDKAFLWEKRYYCFKHPNCLPKILASAPNWKWVNLAKTYSLLHQWPALYPLIALELLDSKFADQEVRSLAVTWIEAISDDELTDLLPQFVQALKYEIYLNSSLVQFLLSRALGNIQIAHNLYWLLKDALHDVQFSTRYEHVLGALLSVGGKRLREELLKQTKLVQLLGGVAEKVRQASGSARQVVLQRSMERVQSFFQKNKCRLPLKPSLVAKELNIKSCSFFSSNAVPLKVTMVNADPMGEEINVMFKVGEDLRQDMLALQMIKIMDKIWLKEGLDLRMVIFKCLSTGRDRGMVELVPASDTLRKIQVEYGVTGSFKDKPLAEWLRKYNPSEEEYEKASENFIYSCAGCCVATYVLGICDRHNDNIMLRSTGHMFHIDFGKFLGHAQMFGSFKRDRAPFVLTSDMAYVINGGEKPTIRFQLFVDLCCQAYNLIRKQTNLFLNLLSLMIPSGLPELTSIQDLKYVRDALQPQTTDAEATIFFTRLIESSLGSIATKFNFFIHNLAQLRFSGLPSNDEPILSFSPKTYSFRQDGRIKEVSVFTYHKKYNPDKHYIYVVRILREGQIEPSFVFRTFDEFQELHNKLSIIFPLWKLPGFPNRMVLGRTHIKDVAAKRKIELNSYLQSLMNASTDVAECDLVCTFFHPLLRDEKAEGIARSADAGSFSPTPGQIGGAVKLSISYRNGTLFIMVMHIKDLVTEDGADPNPYVKTYLLPDNHKTSKRKTKISRKTRNPTFNEMLVYSGYSKETLRQRELQLSVLSAESLRENFFLGGVTLPLKDFNLSKETVKWYQLTAATYL
B3: unnamed (parent)
chain 1: B1 chain 1
chain 2: MAQILPIRFQEHLQLQNLGINPANIGFSTLTMESDKFICIREKVGEQAQVVIIDMNDPSNPIRRPISADSAIMNPASKVIALKAGKTLQIFNIEMKSKMKAHTMTDDVTFWKWISLNTVALVTDNAVYHWSMEGESQPVKMFDRHSSLAGCQIINYRTDAKQKWLLLTGISAQQNRVVGAMQLYSVDRKVSQPIEGHAASFAQFKMEGNAEESTLFCFAVRGQAGGKLHIIEVGTPPTGNQPFPKKAVDVFFPPEAQNDFPVAMQISEKHDVVFLITKYGYIHLYDLETGTCIYMNRISGETIFVTAPHEATAGIIGVNRKGQVLSVCVEEENIIPYITNVLQNPDLALRMAVRNNLAGAEELFARKFNALFAQGNYSEAAKVAANAPKGILRTPDTIRRFQSVPAQPGQTSPLLQYFGILLDQGQLNKYESLELCRPVLQQGRKQLLEKWLKEDKLECSEELGDLVKSVDPTLALSVYLRANVPNKVIQCFAETGQVQKIVLYAKKVGYTPDWIFLLRNVMRISPDQGQQFAQMLVQDEEPLADITQIVDVFMEYNLIQQCTAFLLDALKNNRPSEGPLQTRLLEMNLMHAPQVADAILGNQMFTHYDRAHIAQLCEKAGLLQRALEHFTDLYDIKRAVVHTHLLNPEWLVNYFGSLSVEDSLECLRAMLSANIRQNLQICVQVASKYHEQLSTQSLIELFESFKSFEGLFYFLGSIVNFSQDPDVHFKYIQAACKTGQIKEVERICRESNCYDPERVKNFLKEAKLTDQLPLIIVCDRFDFVHDLVLYLYRNNLQKYIEIYVQKVNPSRLPVVIGGLLDVDCSEDVIKNLILVVRGQFSTDELVAEVEKRNRLKLLLPWLEARIHEGCEEPATHNALAKIYIDSNNNPERFLRENPYYDSRVVGKYCEKRDPHLACVAYERGQCDLELINVCNENSLFKSLSRYLVRRKDPELWGSVLLESNPYRRPLIDQVVQTALSETQDPEEVSVTVKAFMTADLPNELIELLEKIVLDNSVFSEHRNLQNLLILTAIKADRTRVMEYINRLDNYDAPDIANIAISNELFEEAFAIFRKFDVNTSAVQVLIEHIGNLDRAYEFAERCNEPAVWSQLAKAQLQKGMVKEAIDSYIKADDPSSYMEVVQAANTSGNWEELVKYLQMARKKARESYVETELIFALAKTNRLAELEEFINGPNNAHIQQVGDRCYDEKMYDAAKLLYNNVSNFGRLASTLVHLGEYQAAVDGARKANSTRTWKEVCFACVDGKEFRLAQMCGLHIVVHADELEELINYYQDRGYFEELITMLEAALGLERAHMGMFTELAILYSKFKPQKMREHLELFWSRVNIPKVLRAAEQAHLWAELVFLYDKYEEYDNAIITMMNHPTDAWKEGQFKDIITKVANVELYYRAIQFYLEFKPLLLNDLLMVLSPRLDHTRAVNYFSKVKQLPLVKPYLRSVQNHNNKSVNESLNNLFITEEDYQALRTSIDAYDNFDNISLAQRLEKHELIEFRRIAAYLFKGNNRWKQSVELCKKDSLYKDAMQYASESKDTELAEELLQWFLQEEKRECFGACLFTCYDLLRPDVVLETAWRHNIMDFAMPYFIQVMKEYLTKVDKLDASESLRKEEEQATETQPIVYGQPQLMLTAGPSVAVPPQAPFGYGYTAPPYGQPQPGFGYSM
B4: unnamed (parent)
chain 1: B1 chain 1
chain 2: MAELDPFGAPAGAPGGPALGNGVAGAGEEDPAAAFLAQQESEIAGIENDEAFAILDGGAPGPQPHGEPPGGPDAVDGVMNGEYYQESNGPTDSYAAISQVDRLQSEPESIRKWREEQMERLEALDANSRKQEAEWKEKAIKELEEWYARQDEQLQKTKANNRVADEAFYKQPFADVIGYVTNINHPCYSLEQAAEEAFVNDIDESSPGTEWERVARLCDFNPKSSKQAKDVSRMRSVLISLKQAPLVH

Variants of: B1
Experiment: SILAC-MS of GST pull-down
Details: with partner chain of the complex shown; mitotic 293T cell lysates; replicate R1

| Variant | screen value (SDs from the mean) |
| --- | --- |
| chain 1 S65A R66A L67A R68A G69A | 1.4 |

Same assay, conditions: with partner chain of the complex shown; mitotic 293T cell lysates; replicate R2

| Variant | screen value (SDs from the mean) |
| --- | --- |
| chain 1 S65A R66A L67A R68A G69A | 3.3 |

Variants of: B2
Experiment: SILAC-MS of GST pull-down
Details: with partner chain of the complex shown; mitotic 293T cell lysates; replicate R1

| Variant | screen value (SDs from the mean) |
| --- | --- |
| chain 1 S65A R66A L67A R68A G69A | 1.4 |

Same assay, conditions: with partner chain of the complex shown; mitotic 293T cell lysates; replicate R2

| Variant | screen value (SDs from the mean) |
| --- | --- |
| chain 1 S65A R66A L67A R68A G69A | 1.4 |

Variants of: B3
Experiment: SILAC-MS of GST pull-down
Details: with partner chain of the complex shown; mitotic 293T cell lysates; replicate R1

| Variant | screen value (SDs from the mean) |
| --- | --- |
| chain 1 S65A R66A L67A R68A G69A | 1 |

Same assay, conditions: with partner chain of the complex shown; mitotic 293T cell lysates; replicate R2

| Variant | screen value (SDs from the mean) |
| --- | --- |
| chain 1 S65A R66A L67A R68A G69A | 2.3 |

Variants of: B4
Experiment: SILAC-MS of GST pull-down
Details: with partner chain of the complex shown; mitotic 293T cell lysates; replicate R2

| Variant | screen value (SDs from the mean) |
| --- | --- |
| chain 1 S65A R66A L67A R68A G69A | 1.4 |
